The results in this text go back to patent US11732048B2, “Anti-axl antagonistic antibodies” (BERGEN TEKNOLOGIOVERFØRING AS, priority 2016, dated 2023).

For assay [1], the target named is T1, human Axl (rhAxl-Fc chimera) (Homo sapiens, UniProt P30530).
T1 construct: Soluble recombinant antigens corresponding to the extracellular domains of members of the human TAM receptor family; Fc; purchased R&D Systems 154-AL
Put plainly: Biacore kinetic analysis (surface plasmon resonance) on immobilised rhAxl-Fc. It is filed as binding. The settings on record: rhAxl immobilized on Biacore sensor chip, 25° C., 1:1 Langmuir binding model. The procedure:
Kinetic analysis of murine MAb 10G5 interacting with rhAxl immobilized on the surface of the Biacore sensor chip. Overlay plots of sensograms for different antibody concentrations (0.3-166.7 nM for murine 10G5) are shown. The precise kinetic analysis was performed using BIA evaluation software and curve fitting according to 1:1 Langmuir binding model. […]
Affinity determination of anti-Axl antibody 10G5 was performed at 25° C. by surface plasmon resonance measurements using Biacore 3000 instrument (GE Healthcare). As a solid antigen-coated surface, a sensor chip CM5 with immobilized rhAxl-Fc chimera (R&D Systems, Cat. no. 154-AL) at density 190 RU was used.
For the kinetics measurements, different concentrations of anti-Axl antibodies (from 0.3 to 666.7 nM) in HBS-EP buffer (Biacore, Cat. no. BR-1001-88) were injected at flow rate of 30 μL/min with 3 min injection time followed by 5 min dissociation (buffer alone). After each cycle, the surface was regenerated by 30 sec injection of a regeneration solution (10 mM HCl, 1 M NaCl) at flow rate 50 μL/min.
The kinetic association (on-rate, kon) and dissociation (off-rate, koff) rates were calculated using BIAevaluation software and 1:1 Langmuir binding model. The equilibrium dissociation constant (KD) was calculated as the koff/kon ratio. The half-life (t1/2) of the formed antibody-antigen complexes was calculated as the ln 2/koff ratio. […]

The subject of assay [2] is Axl signalling (phosphorylation of Akt on Ser473) in HeLa cells. Put plainly: Gas6-induced Axl downstream signalling, phospho-Akt (Ser473) Western blot. It is filed as cell-based, human. The settings on record: pre-incubation 1 μg/mL 1 hr, then mouse Gas6 10 μg/mL 20 min. The method, then: The experiments were performed using human cervical cancer derived cell line HeLa (ATCC® CCL-2™). The cells were grown in T175 flasks to 80% confluency in MEM culture medium (Sigma) supplemented with 10% FBS, penicillin-streptomycin and L-glutamine. The cells were washed with PBS and detached by treatment with 0.25% Trypsin/EDTA (Sigma) followed by centrifugation and resuspension in fresh medium (MEM/0.5% FBS). The cells were seeded in Petri dishes (3×10^6 cells per dish) in MEM medium supplemented with 10% FBS. After three hrs incubation at 37° C., the cells were washed with PBS and kept in starvation medium (MEM/0.5% FBS) overnight. The cells were pre-incubated with anti-Axl antibody 10G5 at concentration 1 μg/mL for 1 hr followed by stimulation with Axl ligand, recombinant mouse Gas6 (R&D Systems), at concentration 10 μg/mL for 20 min. […] Detection with anti-GAPDH antibody (Millipore) was used as loading control.

For assay [3], the target named is T2, Tyro3 (rhTyro3/Dtk-Fc chimera) (Homo sapiens, UniProt Q06418).
T2 construct: Soluble recombinant antigens corresponding to the extracellular domains of members of the human TAM receptor family; Fc; purchased R&D Systems 859-DK
T2 sequence (Q06418 41-429 limits assumed): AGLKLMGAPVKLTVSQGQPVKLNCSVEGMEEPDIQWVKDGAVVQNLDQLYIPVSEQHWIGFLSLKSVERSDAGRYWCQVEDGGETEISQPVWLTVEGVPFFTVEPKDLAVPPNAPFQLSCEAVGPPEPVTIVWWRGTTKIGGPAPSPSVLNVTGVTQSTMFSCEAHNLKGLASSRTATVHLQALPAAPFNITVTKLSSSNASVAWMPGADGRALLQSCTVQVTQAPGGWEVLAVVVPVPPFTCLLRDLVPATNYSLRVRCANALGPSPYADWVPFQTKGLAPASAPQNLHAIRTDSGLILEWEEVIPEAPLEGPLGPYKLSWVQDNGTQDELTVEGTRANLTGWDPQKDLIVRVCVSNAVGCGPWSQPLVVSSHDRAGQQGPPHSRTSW
Put plainly: Biacore binding analysis on immobilised human Tyro3. The settings on record: 10 μg/mL in HBS-EP, 25° C. The method, then:
All binding experiments were performed using Biacore 3000 instrument (GE Healthcare) at 25° C. Soluble recombinant antigens corresponding to the extracellular domains of members of the human TAM receptor family, Axl (rhAxl-Fc chimera; R&D Systems, Cat. no. 154-AL), Mer (rhMer-Fc chimera; R&D Systems, Cat. no. 891-MR) and Tyro3 (rhTyro3/Dtk-Fc chimera; R&D Systems, Cat. no. 859-DK) were immobilized on the surface of CM5 sensor chip using amine coupling at the surface density of 393.0, 303.6 and 364.0 resonance units (RU), respectively. The Biacore run was performed in an automatic mode using Binding analysis wizard. Samples containing MAb 10G5 at concentration 10 μg/mL in HBS-EP buffer (GE Healthcare) were injected over the surfaces with immobilized antigens at flow rate of 30 μL/min for 3 min (association) followed by 5 min dissociation.
The binding experiments were performed using Biacore 3000 instrument (GE Healthcare) at 25° C. The soluble recombinant antigens corresponding to human Axl (rhAxl-Fc chimera; R&D Systems, Cat. no. 154-AL), mouse Axl (rmAxl-Fc chimera; R&D Systems, R&D Systems; Cat. no. 854-AX) and human Tyro3 (rhTyro3/Dtk-Fc chimera; R&D Systems, Cat. no. 859-DK) were immobilized on the surface of CM5 sensor chip using amine coupling at the surface density of 1,308.0, 2,115.9 and 1,429.0 RU, respectively. The Biacore runs were performed in an automatic mode using Binding analysis wizard.
The sample containing MAb 10G5 or recombinant mouse (rm) Axl-ligand Gas6 (R&D Systems, Cat. no. 986-GS/CF) at concentration 10 μg/mL in HBS-EP buffer (GE Healthcare) was injected over the surfaces with immobilized antigens at flow rate of 30 μL/min for 3 min (association) followed by 5 min dissociation.

The next assay concerns Mv4-11 tumours. In words: Mv4-11 human AML xenograft in nude mice. The settings on record: 30 mg/kg i.p. twice weekly, after three weeks of treatment, versus vehicle. It is filed as in vivo, mouse. The procedure: To evaluate the anti-tumour activity of anti-Axl chimeric antibodies in a model of haematological cancer, we used a mouse xenograft model of human acute myeloid leukaemia (AML). The human AML Mv4-11 cells (ATCC #CRL-9591) cells were propagated in suspension in IMDM medium supplemented with 10% FBS, 2 mM L-Glutamine, 100 U/ml penicillin and 100 μg/ml streptomycin. Nude mice were implanted s.c. into the flank with 5×10^6 Mv4-11 cells resuspended in the mixture of serum-free IMDM medium and Matrigel (1:1). When the tumour size reached 200 mm^3 (Day 0 in FIG. 15), the animals were randomized and treated with either vehicle (sterile PBS) or anti-Axl chimeric antibody 10G5 at 30 mg/kg, by i.p. injections twice weekly for 4 weeks.

“Also recorded” adds a separate entry of the source.

B1: murine 10G5: mouse monoclonal anti-human Axl antibody from hybridoma WR-10G5-E5; VH SEQ ID NO: 28, VL SEQ ID NO: 29 (antibody, listed as Mus musculus, V domains shown)
VH: QVQLQQSGAELVRPGASVKLSCKASGYSFTDFYINWVRQRPGQGLEWIARIFPGGDNTYYNEKFKGKATLTAEESSSTAYIQLSSLTSEDSAVYFCARRGLYYAMDYWGQGISVTVSS
VL: DVLMTQTPLSLPVSLGDQASISCRSSQSLVHSNGIPYLHWYLQKPGQSPKLLIYRVSNRFSGVPDRFSGSGSGTDFTLKISRVEAEDLGVYFCSQGTHVPPTFGGGTKLEIK
modifications: (1)..(118) Mus musculus 10G5 VH domain; (1)..(112) Mus musculus 10G5 VL domain
On to B1, for which, in assay [1], the “Off-rate (koff)” value stood at 0.000439 s⁻¹ and the “On-rate (kon)” value amounted to 829000 M⁻¹ s⁻¹. Also, the “Gas6-induced phosphorylation of Akt on Ser473” value in assay [2] is listed as “significantly reduces; also recorded: significantly be reduced”. In assay [3], the “Binding to recombinant human Tyro3” value is reported as “no significant binding”.

B2: c10G5: chimeric (mouse variable/human constant) IgG1 antibody with the 10G5 VH and VL (antibody, V domains shown)
VH: QVQLQQSGAELVRPGASVKLSCKASGYSFTDFYINWVRQRPGQGLEWIARIFPGGDNTYYNEKFKGKATLTAEESSSTAYIQLSSLTSEDSAVYFCARRGLYYAMDYWGQGISVTVSS
VL: DVLMTQTPLSLPVSLGDQASISCRSSQSLVHSNGIPYLHWYLQKPGQSPKLLIYRVSNRFSGVPDRFSGSGSGTDFTLKISRVEAEDLGVYFCSQGTHVPPTFGGGTKLEIK
Regarding B2, the “Inhibition of Mv4-11 tumour growth” value in the assay on Mv4-11 tumours is “around 75%”. For the same molecule, in assay [1], the “Off-rate (koff)” value is 0.000169 s⁻¹ and the “On-rate (kon)” value came out at 1.64e+06 M⁻¹ s⁻¹.
